The target of data set [1] is T1, Flag-mut-RNase HEC (catalytically dead RNase HI) (E. coli, UniProt P0A7Y4 1-155, D10R;E48R).
T1 sequence: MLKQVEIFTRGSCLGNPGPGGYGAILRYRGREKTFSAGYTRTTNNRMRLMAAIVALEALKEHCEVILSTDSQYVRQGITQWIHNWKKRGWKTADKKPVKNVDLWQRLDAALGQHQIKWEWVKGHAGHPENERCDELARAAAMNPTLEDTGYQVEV
The data set can be described thus: EMSA. In general terms: In EMSA bound probe runs differently from free probe, usually more slowly.

Data set [2] has as its target T1, Flag-mut-RNase HEC (catalytically dead …). The data set can be described thus: competition.

B1: Dig-RD hybrid (25 bp RNA/DNA) (DNA:RNA)
DNA: GATTCATACCTGTCGTGCCAGCTGC
RNA: GCAGCUGGCACGACAGGUAUGAAUC
In the case of B1, in data set [1], the binding result is on record as “binds”.

B2: unlabeled RD hybrid (25 bp RNA/DNA) (DNA:RNA)
DNA: GATTCATACCTGTCGTGCCAGCTGC
RNA: GCAGCUGGCACGACAGGUAUGAAUC
With B2, in data set [2], the binding result is given as “binds”.

Values taken from article doi:10.1101/2022.04.08.487625.
